Results: the supplement of paper PMC10724198
± gives the standard deviation of the averaged measurements.

Assays:
Saccharomyces cerevisiae [1] = experiment: protein stability index of tFT-peptide fusion (C-terminal peptide) (PSI (0-1 scale)); higher = more stable (slower turnover)
Protocol: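 MPS profiling in S. cerevisiae of the tFT-X12 degron library: putative degron peptides plus stable controls, 12 aa, fused to the C-terminus of a sfGFP-mCherry timer. Cells are FACS-sorted into 8 mCherry/sfGFP bins and deep-sequenced. PSI runs from 0 (unstable) to 1 (stable). Backgrounds are wild type, das1Δ and doa10Δ at 30 °C, and wild type, das1Δ, cdc34-1 and cdc53-1 at 37 °C; 2-3 technical replicates each.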

Saccharomyces cerevisiae [2] = experiment: as above; settings: genetic background: wild type; temperature: 30 C
[3] = genetic background: cdc34-1, temperature: 37 C
[4] = genetic background: cdc53-1, temperature: 37 C
[5] = genetic background: das1 deletion, temperature: 30 C
[6] = genetic background: das1 deletion, temperature: 37 C
[7] = genetic background: doa10 deletion, temperature: 30 C
[8] = genetic background: wild type, temperature: 30 C
[9] = genetic background: wild type, temperature: 37 C
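Also: PSI is a weighted mean of sequencing reads over stability bins, variants kept only with over 10 reads, mCherry proximal and sfGFP distal, peptide attached via GGGS linker.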

Sequence	protein stability index (Saccharomyces cerevisiae [1]; [3])	protein stability index (Saccharomyces cerevisiae [1]; [4])	protein stability index (Saccharomyces cerevisiae [1]; [5])	protein stability index (Saccharomyces cerevisiae [1]; [6])	protein stability index (Saccharomyces cerevisiae [1]; [7])	protein stability index (Saccharomyces cerevisiae [1]; [8])	protein stability index (Saccharomyces cerevisiae [1]; [9])	protein stability index (Saccharomyces cerevisiae [2])
ALLLLLRRFFLV	0.432 ± 0.034	0.659 ± 0.029	0.643 ± 0.014	0.739 ± 0.013	0.0867 ± 0.003	0.101 ± 0.044	0.0903 ± 0.02	0.154 ± 0.029
ALMTFTLVFTYM	0.168 ± 0.0067	0.296 ± 0.0055	0.181 ± 0.022	0.324 ± 0.02	0.209 ± 0.026	0.173 ± 0.027	0.278 ± 0.027	0.251 ± 0.014
ALPLRSNILSVF	0.446 ± 0.019	0.489 ± 0.037	0.344 ± 0.031	0.506 ± 0.0091	0.242 ± 0.01	0.283 ± 0.023	0.45 ± 0.011	0.3795 ± 0.0028
ALWFVLISILCL	0.316 ± 0.016	0.353 ± 0.026	0.312 ± 0.024	0.427 ± 0.03	0.304 ± 0.007	0.291 ± 0.017	0.3896 ± 0.0022	0.378 ± 0.007
ARFCFRIFSFAS	0.159 ± 0.018	0.178 ± 0.0049	0.288 ± 0.032	0.168 ± 0.0092	0.0406 ± 0.0038	0.0456 ± 0.0018	0.0722 ± 0.018	0.0816 ± 0.0097
ASCFFLFVLRVF	0.0589 ± 0.0071	0.113 ± 0.0091	0.169 ± 0.016	0.271 ± 0.0072	0.13 ± 0.0043	0.112 ± 0.017	0.14 ± 0.019	0.233 ± 0.041
ATLWVWCFSSHV	0.601 ± 0.047	0.6418 ± 0.003	0.469 ± 0.019	0.62 ± 0.013	0.438 ± 0.023	0.447 ± 0.021	0.5991 ± 0.0014	0.497 ± 0.078
ATSGATILVLIA	0.569 ± 0.014	0.65 ± 0.0048	0.488 ± 0.024	0.6473 ± 0.0042	0.188 ± 0.0099	0.218 ± 0.021	0.342 ± 0.0064	0.307 ± 0.0047
CEVLVVVMCLWG	0.199 ± 0.0023	0.295 ± 0.043	0.224 ± 0.029	0.3738 ± 0.0025	0.196 ± 0.006	0.217 ± 0.025	0.32342 ± 4.2e-05	0.285 ± 0.024
CFFPFLCFVVGA	0.482 ± 0.021	0.492 ± 0.023	0.358 ± 0.025	0.514 ± 0.0085	0.3205 ± 0.0017	0.346 ± 0.013	0.49 ± 0.0059	0.445 ± 0.017
CLFFFFFHLPIF	0.445 ± 0.022	0.508 ± 0.016	0.425 ± 0.026	0.533 ± 0.033	0.4011 ± 0.00062	0.389 ± 0.023	0.476 ± 0.021	0.472 ± 0.032
CLFSVLFPLFFR	0.0858 ± 0.049	0.0347 ± 0.0022	0.137 ± 0.042	0.158 ± 0.016	0.6444 ± 0.0064	0.142 ± 0.0055	0.184 ± 0.073	0.214 ± 0.039
CLGLFPSLLRLS	0.666 ± 0.031	0.737 ± 0.021	0.644 ± 0.02	0.731 ± 0.0092	0.285 ± 0.026	0.291 ± 0.033	0.535 ± 0.009	0.325 ± 0.032
CLLWVVWSLLWV	0.346 ± 0.0041	0.432 ± 0.011	0.283 ± 0.035	0.4506 ± 0.0035	0.269 ± 0.0094	0.257 ± 0.034	0.416 ± 0.0074	0.353 ± 0.095
CLVFGFLFFIVI	0.35 ± 0.028	0.411 ± 0.061	0.338 ± 0.026	0.449 ± 0.016	0.435 ± 0.016	0.35 ± 0.029	0.447 ± 0.037	0.404 ± 0.021
CLWNFWVRFLLL	0.298 ± 0.042	0.406 ± 0.023	0.399 ± 0.014	0.509 ± 0.015	0.164 ± 0.0046	0.139 ± 0.01	0.135 ± 0.0083	0.175 ± 0.022
CMLGVVRVLVWF	0.028 ± 0.0058	0.138 ± 0.075	0.129 ± 0.029	0.1929 ± 0.0009	0.101 ± 0.0035	0.105 ± 0.051	0.17 ± 0.027	0.186 ± 0.033
CMLPWPILLCPF	0.322 ± 0.0044	0.329 ± 0.023	0.391 ± 0.024	0.469 ± 0.023	0.517 ± 0.022	0.389 ± 0.0084	0.456 ± 0.03	0.46 ± 0.0055
CMPVYYTVVIRL	0.177 ± 0.052	0.102 ± 0.028	0.204 ± 0.029	0.294 ± 0.015	0.246 ± 0.021	0.159 ± 0.024	0.31 ± 0.021	0.296 ± 0.021
CPALTFCLLLSS	0.539 ± 0.051	0.567 ± 0.0093	0.417 ± 0.029	0.5866 ± 0.0054	0.427 ± 0.015	0.383 ± 0.019	0.557 ± 0.01	0.457 ± 0.0097

Sequence	protein stability index (Saccharomyces cerevisiae [1]; [3])	protein stability index (Saccharomyces cerevisiae [1]; [4])	protein stability index (Saccharomyces cerevisiae [1]; [5])	protein stability index (Saccharomyces cerevisiae [1]; [6])	protein stability index (Saccharomyces cerevisiae [1]; [7])	protein stability index (Saccharomyces cerevisiae [1]; [8])	protein stability index (Saccharomyces cerevisiae [1]; [9])	protein stability index (Saccharomyces cerevisiae [2])
CPFLTLLISLDV	0.52 ± 0.034	0.555 ± 0.044	0.411 ± 0.032	0.531 ± 0.0067	0.407 ± 0.011	0.426 ± 0.01	0.513 ± 0.028	0.478 ± 0.011
CPICDFLFLALF	0.565 ± 0.021	0.599 ± 0.064	0.483 ± 0.037	0.651 ± 0.022	0.469 ± 0.023	0.424 ± 0.028	0.598 ± 0.03	0.424 ± 0.054
CRHCFVLLYFDY	0.304 ± 0.026	0.304 ± 0.013	0.321 ± 0.033	0.384 ± 0.0093	0.421 ± 0.017	0.318 ± 0.023	0.374 ± 0.0097	0.349 ± 0.00063
CRLATILRITAL	0.574 ± 0.028	0.665 ± 0.026	0.552 ± 0.022	0.658 ± 0.021	0.193 ± 0.008	0.241 ± 0.031	0.4445 ± 0.00077	0.384 ± 0.018
CSLFFFRLIFTL	0.101 ± 0.025	0.185 ± 0.026	0.219 ± 0.032	0.339 ± 0.0091	0.0783 ± 0.0034	0.0603 ± 0.017	0.0702 ± 0.01	0.0826 ± 0.014
CSLFYVFYRRLL	0.595 ± 0.026	0.665 ± 0.012	0.556 ± 0.0087	0.649 ± 0.01	0.285 ± 0.011	0.342 ± 0.051	0.5212 ± 0.0043	0.38 ± 0.0078
CSLRGLFLVVSV	0.3652 ± 0.0033	0.396 ± 0.018	0.289 ± 0.032	0.474 ± 0.016	0.339 ± 0.025	0.292 ± 0.02	0.451 ± 0.01	0.405 ± 0.0065
CTLVFLFFDLCS	0.413 ± 0.015	0.533 ± 0.087	0.333 ± 0.042	0.497 ± 0.03	0.263 ± 0.014	0.304 ± 0.018	0.4904 ± 0.0021	0.405 ± 0.053
CVCVVVCWRCGF	0.378 ± 0.018	0.465 ± 0.035	0.306 ± 0.031	0.509 ± 0.021	0.276 ± 0.0091	0.327 ± 0.034	0.4555 ± 0.0043	0.481 ± 0.015
CVIVCVLVWGRA	0.156 ± 0.025	0.269 ± 0.062	0.17 ± 0.046	0.329 ± 0.0095	0.152 ± 0.0045	0.172 ± 0.026	0.326 ± 0.013	0.24 ± 0.011
CVMWFLLSAYYL	0.358 ± 0.019	0.4288 ± 0.0029	0.265 ± 0.037	0.4336 ± 0.002	0.285 ± 0.013	0.267 ± 0.042	0.457 ± 0.042	0.386 ± 0.061
CVPAPCGRASCR	0.697 ± 0.013	0.7301 ± 0.0034	0.64 ± 0.041	0.743 ± 0.0076	0.63 ± 0.0079	0.658 ± 0.018	0.706 ± 0.022	0.698 ± 0.016
CYSLLFVSVILF	0.123 ± 0.091	0.158 ± 0.036	0.151 ± 0.015	0.271 ± 0.023	0.135 ± 0.01	0.138 ± 0.021	0.248 ± 0.0038	0.218 ± 0.023
CYVFLCGSFVFV	0.446 ± 0.011	0.499 ± 0.0084	0.36 ± 0.036	0.551 ± 0.014	0.317 ± 0.0068	0.351 ± 0.023	0.515 ± 0.012	0.471 ± 0.037
DFLSGRCIFFYV	0.702 ± 0.029	0.797 ± 0.009	0.6451 ± 0.0058	0.762 ± 0.016	0.243 ± 0.014	0.277 ± 0.029	0.512 ± 0.011	0.445 ± 0.0099
DFRGVSVIRHQV	0.615 ± 0.065	0.7327 ± 0.0024	0.64 ± 0.015	0.7366 ± 0.0065	0.126 ± 0.0098	0.147 ± 0.018	0.308 ± 0.052	0.179 ± 0.047
DRTRLFLLLIIA	0.179 ± 0.0023	0.256 ± 0.038	0.202 ± 0.028	0.4013 ± 0.0035	0.139 ± 0.0068	0.165 ± 0.016	0.273 ± 0.019	0.246 ± 0.042
DTHSRARAVLIA	0.656 ± 0.0091	0.719 ± 0.015	0.585 ± 0.016	0.704 ± 0.01	0.2366 ± 0.002	0.301 ± 0.019	0.509 ± 0.04	0.389 ± 0.086
DYARAWRTEVVC	0.393 ± 0.046	0.448 ± 0.025	0.328 ± 0.021	0.525 ± 0.016	0.288 ± 0.015	0.332 ± 0.017	0.5088 ± 0.0024	0.424 ± 0.01
